This note sets out measurements from patent US12295987B2, “Method of using a GIP/GLP1 co-agonist for diabetes” (Eli Lilly and Company, priority 2018, dated 2025).

In this test the target is T1, human gastric inhibitory peptide receptor (hGIPR) (Homo sapiens, UniProt P48546).
T1 construct: expressed in transfected cells; host or cells: HEK293
T1 sequence (P48546 22-466): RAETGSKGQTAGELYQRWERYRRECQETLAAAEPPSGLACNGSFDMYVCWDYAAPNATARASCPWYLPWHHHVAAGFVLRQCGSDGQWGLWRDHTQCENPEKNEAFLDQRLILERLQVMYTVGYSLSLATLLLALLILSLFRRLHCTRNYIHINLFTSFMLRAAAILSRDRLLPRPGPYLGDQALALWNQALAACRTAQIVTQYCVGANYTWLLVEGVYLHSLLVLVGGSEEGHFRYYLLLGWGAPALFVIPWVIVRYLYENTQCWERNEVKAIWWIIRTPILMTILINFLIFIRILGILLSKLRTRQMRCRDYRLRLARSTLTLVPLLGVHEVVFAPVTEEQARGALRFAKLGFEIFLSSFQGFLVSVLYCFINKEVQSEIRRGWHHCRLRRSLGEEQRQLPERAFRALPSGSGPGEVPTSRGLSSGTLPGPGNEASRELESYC
Kind of test: cAMP pharmacological functional assay in presence of 0.1% casein, hGIPR. Type of test: cell-based. The note with it: ratio of hGIPR to hGLP1R cAMP EC50 ratios.

Take “Y-Aib-EGT-αMeF(2F)-TSDYSI-αMeL-LD-Orn-K((2-[2-(2-Amino-ethoxy)-ethoxy]-acetyl)2-(γGlu)-CO—(CH2)18—CO2H)AQ-Aib-EFI-(D-Glu)-YLIEGGPSSGAPPPS-NH2 (YXEGTXTSDYSIXLDXKAQXEFIXYLIEGGPSSGAPPPS; Aib, Orn, αMe residues, lipidated Lys, D-Glu, amide; (2)..(2) Xaa at position 2 is Aib; (6)..(6) Xaa at position 6 is alpha-MeF(2F); (13)..(13) Xaa at position 13 is alpha-MeL; (16)..(16) Xaa at position 16 is Orn; MOD_RES (17)..(17) K at position 17 is chemically modified by conjugation of the epsilon-amino group of the K side chain with (2-[2-(2-amino-ethoxy)-ethoxy]-acetyl)2-(gamma-Glu)-CO-(CH2)18- CO2H; (20)..(20) Xaa at position 20 is Aib; (24)) [Peptide 3]”: the “[hGIPR/hGLP1R] EC50 Ratio” value turned out to be 3.61.

Turning to “Y-Aib-EGT-αMeF(2F)-TSDYSI-αMeL-LDEK((2-[2-(2-Amino-ethoxy)-ethoxy]-acetyl)2-(γGlu)-CO—(CH2)14—CO2H)AQ-Aib-EFI-(D-Glu)-YLIEGGPSSGAPPPS-NH2 (YXEGTXTSDYSIXLDEKAQXEFIXYLIEGGPSSGAPPPS; Aib, αMeF(2F), αMeL, D-Glu; lipidated K; amide; (2)..(2) Xaa at position 2 is Aib; (6)..(6) Xaa at position 6 is alpha-methyl-Phe(2F); (13)..(13) Xaa at position 13 is alpha-methyl-Leu; MOD_RES (17)..(17) Lys at position 17 is chemically modified by conjugation of the epsilon-amino group of the Lys side chain with (2-[2-(2-amino-ethoxy)-ethoxy]-acetyl)2-(gamma-Glu)-CO-(CH2)14- CO2H; (20)..(20) Xaa at position 20 is Aib; (24)..(24) Xaa at positi) [Peptide 208]”, the “[hGIPR/hGLP1R] EC50 Ratio” value was 9.08.

For the substance “Y-Aib-EGT-αMeF(2F)-TSDYSI-αMeL-LDEK((2-[2-(2-Amino-ethoxy)-ethoxy]-acetyl)2-(γGlu)-CO—(CH2)16—CO2H)AQ-Aib-EFI-(D-Glu)-YLIEGG-NH2 (YXEGTXTSDYSIXLDEKAQXEFIXYLIEGG; Aib, αMe, D-Glu, C18 diacid lipidation, C-amide; (2)..(2) Xaa at position 2 is Aib; (6)..(6) Xaa at position 6 is alpha-methyl-Phe(2F); (13)..(13) Xaa at position 13 is alpha-methyl-Leu; MOD_RES (17)..(17) Lys at position 17 is chemically modified by conjugation of the epsilon-amino group of the Lys side chain with (2-[2-(2-amino-ethoxy)-ethoxy]-acetyl)2-(gamma-Glu)-CO-(CH2)16- CO2H; (20)..(20) Xaa at position 20 is Aib; (24)..(24) Xaa at positi) [Peptide 220]”, the “[hGIPR/hGLP1R] EC50 Ratio” value was 4.63.

For the substance “Y-Aib-EGT-αMeF(2F)-TSDYSI-αMeL-LDEK((2-[2-(2-Amino-ethoxy)-ethoxy]-acetyl)2-(γGlu)-CO—(CH2)16—CO2H)AQ-Aib-EFI-(D-Glu)-YLIEGGPSSG-NH2 (YXEGTXTSDYSIXLDEKAQXEFIXYLIEGGPSSG; Aib, αMe, D-Glu, C18 diacid lipidation, C-amide; (2)..(2) Xaa at position 2 is Aib; (6)..(6) Xaa at position 6 is alpha-methyl-Phe(2F); (13)..(13) Xaa at position 13 is alpha-methyl-Leu; MOD_RES (17)..(17) Lys at position 17 is chemically modified by conjugation of the epsilon-amino group of the Lys side chain with (2-[2-(2-amino-ethoxy)-ethoxy]-acetyl)2-(gamma-Glu)-CO-(CH2)16- CO2H; (20)..(20) Xaa at position 20 is Aib; (24)..(24) Xaa at positi) [Peptide 219]”, the “[hGIPR/hGLP1R] EC50 Ratio” value was determined as 5.69.

Turning to “Y-Aib-EGT-αMeF(2F)-TSDYSI-αMeL-LDEK((2-[2-(2-Amino-ethoxy)-ethoxy]-acetyl)2-(γGlu)-CO—(CH2)16—CO2H)AQ-Aib-EFI-(D-Glu)-YLIEGGPSSGAPPPS-NH2 (YXEGTXTSDYSIXLDEKAQXEFIXYLIEGGPSSGAPPPS; Aib, αMeF(2F), αMeL, D-Glu; lipidated K; amide; (2)..(2) Xaa at position 2 is Aib; (6)..(6) Xaa at position 6 is alpha-methyl-Phe(2F); (13)..(13) Xaa at position 13 is alpha-methyl-Leu; MOD_RES (17)..(17) Lys at position 17 is chemically modified by conjugation of the epsilon-amino group of the Lys side chain with (2-[2-(2-amino-ethoxy)-ethoxy]-acetyl)2-(gamma-Glu)-CO-(CH2)16- CO2H; (20)..(20) Xaa at position 20 is Aib; (24)..(24) Xaa at positi) [Peptide 221]”, the “[hGIPR/hGLP1R] EC50 Ratio” value came to 5.66.

Take “Y-Aib-EGT-αMeF(2F)-TSDYSI-αMeL-LDEK((2-[2-(2-Amino-ethoxy)-ethoxy]-acetyl)2-(γGlu)-CO—(CH2)16—CO2H)AQ-Aib-EFIEYLIEGG-NH2 (YXEGTXTSDYSIXLDEKAQXEFIEYLIEGG; Aib, αMe residues, C18 diacid lipidation, C-amide; (2)..(2) Xaa at position 2 is Aib; (6)..(6) Xaa at position 6 is alpha-methyl-Phe(2F); (13)..(13) Xaa at position 13 is alpha-methyl-Leu; MOD_RES (17)..(17) Lys at position 17 is chemically modified by conjugation of the epsilon-amino group of the Lys side chain with (2-[2-(2-amino-ethoxy)-ethoxy]-acetyl)2-(gamma-Glu)-CO-(CH2)16- CO2H; (20)..(20) Xaa at position 20 is Aib; MOD_RES (30)..(30) Gly a) [Peptide 104]”: the “[hGIPR/hGLP1R] EC50 Ratio” value is given as 2.66.

With “Y-Aib-EGT-αMeF(2F)-TSDYSI-αMeL-LDEK((2-[2-(2-Amino-ethoxy)-ethoxy]-acetyl)2-(γGlu)-CO—(CH2)18—CO2H)AQ-Aib-EFI-(D-Glu)--αMeY-LIEGGPSSGAPPPS-NH2 (YXEGTXTSDYSIXLDEKAQXEFIXXLIEGGPSSGAPPPS; Aib, αMeF(2F), αMeL, D-Glu, αMeY; lipidated K; amide; (2)..(2) Xaa at position 2 is Aib; (6)..(6) Xaa at position 6 is alpha-methyl-Phe(2F); (13)..(13) Xaa at position 13 is alpha-methyl-Leu; MOD_RES (17)..(17) Lys at position 17 is chemically modified by conjugation of the epsilon-amino group of the Lys side chain with (2-[2-(2-amino-ethoxy)-ethoxy]-acetyl)2-(gamma-Glu)-CO-(CH2)18- CO2H; (20)..(20) Xaa at position 20 is Aib; (24)..(24) Xaa at positi) [Peptide 222]”, the “[hGIPR/hGLP1R] EC50 Ratio” value is 3.77.

For the substance “Y-Aib-EGT-αMeF(2F)-TSDYSI-αMeL-LDEK((2-[2-(2-Amino-ethoxy)-ethoxy]-acetyl)2-(γGlu)-CO—(CH2)18—CO2H)AQ-Aib-EFI-(D-Glu)-YLIEGGPSSGAPPPS-NH2 (YXEGTXTSDYSIXLDEKAQXEFIXYLIEGGPSSGAPPPS; Aib, alphaMe residues, C20 diacid lipidation, C-amide; (2)..(2) Xaa at position 2 is Aib; (6)..(6) Xaa at position 6 is alpha-MeF(2F); (13)..(13) Xaa at position 13 is alpha-MeL; MOD_RES (17)..(17) K at position 17 is chemically modified by conjugation of the epsilon-amino group of the K side chain with (2-[2-(2-amino-ethoxy)-ethoxy]-acetyl)2-(gamma-Glu)-CO-(CH2)18- CO2H; (20)..(20) Xaa at position 20 is Aib; (24)..(24) Xaa at position 24 is D-Glu; MO) [Peptide 1]”, the “[hGIPR/hGLP1R] EC50 Ratio” value came to 4.15.

“Y-Aib-EGT-αMeF(2F)-TSDYSI-αMeL-LDEK((2-[2-(2-Amino-ethoxy)-ethoxy]-acetyl)2-(γGlu)-CO—(CH2)18—CO2H)AQ-Aib-EFI-Aad-YLIEGGPSSGAPPPS-NH2 (YXEGTXTSDYSIXLDEKAQXEFIXYLIEGGPSSGAPPPS; Aib, Aad, αMeF(2F), αMeL; acylated lysine C20 diacid; amide; (2)..(2) Xaa at position 2 is Aib; (6)..(6) Xaa at position 6 is alpha-methyl-Phe(2F); (13)..(13) Xaa at position 13 is alpha-methyl-Leu; MOD_RES (17)..(17) Lys at position 17 is chemically modified by conjugation of the epsilon-amino group of the Lys side chain with (2-[2-(2-amino-ethoxy)-ethoxy]-acetyl)2-(gamma-Glu)-CO-(CH2)18- CO2H; (20)..(20) Xaa at position 20 is Aib; (24)..(24) Xaa at positi) [Peptide 147]”: the “[hGIPR/hGLP1R] EC50 Ratio” value is 3.66.
